Tests used:
[1] = molecular target: cynomolgus IL-13 (purchased from sino biological) (cynomolgus) (UniProt Q0PW92); assay: ELISA, cynomolgus IL-13; antibody at 0.53 nM
[2] = molecular target: T1, mouse IL-13 (purchased from sino biological) (mouse, UniProt P20109 19-131); assay: ELISA, mouse IL-13; antibody at 0.53 nM
T1 chain: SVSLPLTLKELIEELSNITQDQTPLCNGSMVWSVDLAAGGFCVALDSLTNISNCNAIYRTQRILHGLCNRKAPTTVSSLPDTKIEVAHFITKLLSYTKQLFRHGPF

[3] = molecular target: cynomolgus IL-13 (purchased from sino biological) (cynomolgus) (UniProt Q0PW92); assay: ELISA, cynomolgus IL-13; antibody at 66.67 nM
[4] = molecular target: T1, mouse IL-13 (purchased from sino …); assay: ELISA, mouse IL-13; antibody at 0.021 nM
[5] = molecular target: T1, mouse IL-13 (purchased from sino …); assay: ELISA, mouse IL-13; antibody at 13.33 nM
[6] = molecular target: cynomolgus IL-13 (purchased from sino biological) (cynomolgus) (UniProt Q0PW92); assay: ELISA, cynomolgus IL-13; antibody at 0.021 nM
[7] = molecular target: cynomolgus IL-13 (purchased from sino biological) (cynomolgus) (UniProt Q0PW92); assay: ELISA, cynomolgus IL-13; antibody at 0.11 nM
[8] = molecular target: his-labeled human IL-13 (immunogen A) (human) (UniProt P35225); assay: FACS blocking, biotin-IL-13 on IL-13Ra2 HEK293 cells; antibody at 1.33 nM
[9] = molecular target: his-labeled human IL-13 (immunogen A) (human) (UniProt P35225); assay: FACS blocking, biotin-IL-13 on IL-13Ra2 HEK293 cells; antibody at 0.27 nM
[10] = molecular target: his-labeled human IL-13 (immunogen A) (human) (UniProt P35225); assay: ELISA, biotin-immunogen A; antibody at 0.53 nM
[11] = molecular target: cynomolgus IL-13 (purchased from sino biological) (cynomolgus) (UniProt Q0PW92); assay: ELISA, cynomolgus IL-13; antibody at 13.33 nM
[12] = molecular target: T1, mouse IL-13 (purchased from sino …); assay: ELISA, mouse IL-13; antibody at 0.11 nM
[13] = molecular target: T1, mouse IL-13 (purchased from sino …); assay: ELISA, mouse IL-13; antibody at 2.67 nM
[14] = molecular target: T1, mouse IL-13 (purchased from sino …); assay: ELISA, mouse IL-13; antibody at 0.000 nM
[15] = molecular target: his-labeled human IL-13 (immunogen A) (human) (UniProt P35225); assay: ELISA, biotin-immunogen A; antibody at 0.021 nM
[16] = molecular target: his-labeled human IL-13 (immunogen A) (human) (UniProt P35225); assay: FACS blocking, biotin-IL-13 on IL-13Ra2 HEK293 cells; antibody at 166.67 nM
[17] = molecular target: his-labeled human IL-13 (immunogen A) (human) (UniProt P35225); assay: ELISA: biotin-labeled immunogen A on streptavidin plate, antibody titrated, HRP secondary antibody, OD450
[18] = molecular target: his-labeled human IL-13 (immunogen A) (human) (UniProt P35225); assay: ELISA, biotin-immunogen A; antibody at 13.33 nM
[19] = molecular target: his-labeled human IL-13 (immunogen A) (human) (UniProt P35225); assay: ELISA, biotin-immunogen A; antibody at 0.004 nM
[20] = molecular target: his-labeled human IL-13 (immunogen A) (human) (UniProt P35225); assay: FACS blocking, biotin-IL-13 on IL-13Ra2 HEK293 cells; antibody at 0.002 nM
[21] = molecular target: cynomolgus IL-13 (purchased from sino biological) (cynomolgus) (UniProt Q0PW92); assay: ELISA, cynomolgus IL-13; antibody at 2.67 nM
[22] = molecular target: his-labeled human IL-13 (immunogen A) (human) (UniProt P35225); assay: ELISA, biotin-immunogen A; antibody at 0.001 nM
[23] = molecular target: his-labeled human IL-13 (immunogen A) (human) (UniProt P35225); assay: FACS blocking, biotin-IL-13 on IL-13Ra2 HEK293 cells; antibody at 33.33 nM
[24] = molecular target: his-labeled human IL-13 (immunogen A) (human) (UniProt P35225); assay: FACS blocking, biotin-IL-13 on IL-13Ra2 HEK293 cells; antibody at 0.01 nM
[25] = molecular target: his-labeled human IL-13 (immunogen A) (human) (UniProt P35225); assay: cell-based or functional assay
[26] = molecular target: his-labeled human IL-13 (immunogen A) (human) (UniProt P35225); assay: ELISA, biotin-immunogen A; antibody at 0.000 nM
[27] = molecular target: his-labeled human IL-13 (immunogen A) (human) (UniProt P35225); assay: FACS blocking assay: antibody titrated with biotin-labeled immunogen A (20 ng/mL); blocked partner IL-13Ra2 on HEK293 clone 1A1; Alexa 488 streptavidin
[28] = molecular target: his-labeled human IL-13 (immunogen A) (human) (UniProt P35225); assay: FACS blocking, biotin-IL-13 on IL-13Ra2 HEK293 cells; antibody at 6.67 nM
[29] = molecular target: cynomolgus IL-13 (purchased from sino biological) (cynomolgus) (UniProt Q0PW92); assay: ELISA, cynomolgus IL-13; antibody at 0.004 nM
[30] = molecular target: his-labeled human IL-13 (immunogen A) (human) (UniProt P35225); assay: ELISA, biotin-immunogen A; antibody at 0.11 nM
[31] = molecular target: his-labeled human IL-13 (immunogen A) (human) (UniProt P35225); assay: FACS blocking, biotin-IL-13 on IL-13Ra2 HEK293 cells; antibody at 0.05 nM
[32] = molecular target: T1, mouse IL-13 (purchased from sino …); assay: ELISA, mouse IL-13; antibody at 0.001 nM
[33] = molecular target: his-labeled human IL-13 (immunogen A) (human) (UniProt P35225); assay: FACS blocking assay: antibody titrated with biotin-labeled immunogen A (30 ng/mL); blocked partner IL-13Ra1/IL-4Ra on HEK293 clone 4C1; Alexa 488 streptavidin
[34] = molecular target: his-labeled human IL-13 (immunogen A) (human) (UniProt P35225); assay: ELISA, biotin-immunogen A; antibody at 2.67 nM
[35] = molecular target: T1, mouse IL-13 (purchased from sino …); assay: ELISA, mouse IL-13; antibody at 0.004 nM

cynomolgus IL-13 (purchased from sino biological) (cynomolgus), sequence (Q0PW92 entry or part of it): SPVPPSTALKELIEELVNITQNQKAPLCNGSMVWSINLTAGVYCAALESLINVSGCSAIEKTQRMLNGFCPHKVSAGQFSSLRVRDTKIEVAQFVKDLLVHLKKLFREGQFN

B1: 35E2C3 (lead antibody, mouse hybridoma) (antibody, V domains shown)
VH: EVQLQESGPGLAKPSQTLSLTCSVTGYSITSDYWNWIRKFPGNKLEYMGYISYNGNTYYNPSLKSQISITRDTSKNQLYLQLKSATTEDTATYYCARLAKWTWYFDIWGTGTTVTVSS
VL: DIQMNQSPSSLSASLGDTITITCHASQNINVWLSWYQQKPGSLPKLLIYKASDLHTGVPSRFSGSGSGTGFTLTISSLQPEDIATYYCQQGQSYPYTFGGGTKLEIK
notes: Mouse monoclonal antibody purified from hybridoma supernatant on Protein G
[1]
  OD450 nm: 0.21
[2]
  OD450 nm: 0.06
[3]
  OD450 nm: 1.56
[4]
  OD450 nm: 0.06
[5]
  OD450 nm: 0.09
[6]
  OD450 nm: 0.07
[7]
  OD450 nm: 0.11
[8]
  mean fluorescence intensity: 38.7
[9]
  mean fluorescence intensity: 53.2
[10]
  OD450 nm: 0.91
[11]
  OD450 nm: 1.13
[12]
  OD450 nm: 0.06
[13]
  OD450 nm: 0.08
[14]
  OD450 nm: 0.07
[15]
  OD450 nm: 0.15
[16]
  mean fluorescence intensity: 28.9
[17]
  EC50 (read off the curve): 0.3 nM
[18]
  OD450 nm: 1.39
[19]
  OD450 nm: 0.07
[20]
  mean fluorescence intensity: 76
[21]
  OD450 nm: 0.52
[22]
  OD450 nm: 0.05
[23]
  mean fluorescence intensity: 32.4
[24]
  mean fluorescence intensity: 74.3
[25]
  TARC (pg/mL), A549 cells + IL-13 5 ng/mL + TNFα; antibody at 0.001 nM: 1730 pg/mL
  TARC (pg/mL), A549 cells + IL-13 5 ng/mL + TNFα; antibody at 0.004 nM: 1670 pg/mL
  TARC (pg/mL), A549 cells + IL-13 5 ng/mL + TNFα; antibody at 0.021 nM: 1620 pg/mL
  TARC (pg/mL), A549 cells + IL-13 5 ng/mL + TNFα; antibody at 0.11 nM: 1550 pg/mL
  TARC (pg/mL), A549 cells + IL-13 5 ng/mL + TNFα; antibody at 0.5 nM: 1340 pg/mL
  TARC (pg/mL), A549 cells + IL-13 5 ng/mL + TNFα; antibody at 2.7 nM: 797 pg/mL
  TARC (pg/mL), A549 cells + IL-13 5 ng/mL + TNFα; antibody at 13.3 nM: 278 pg/mL
  TARC (pg/mL), A549 cells + IL-13 5 ng/mL + TNFα; antibody at 66.7 nM: 67 pg/mL
[26]
  OD450 nm: 0.05
[27]
  IC50 (read off the curve): 0.3 nM
[28]
  mean fluorescence intensity: 35.1
[29]
  OD450 nm: 0.07
[30]
  OD450 nm: 0.41
[31]
  mean fluorescence intensity: 66.6
[32]
  OD450 nm: 0.07
[33]
  IC50 (read off the curve): 0.4 nM
[34]
  OD450 nm: 1.31
[35]
  OD450 nm: 0.06

Source: US20190309059A1 (SHANGHAI PHARMAEXPLORER, published 2019)
